Results on 5 molecules are retold here after patent US20110136676, “GEOMETRIC PATTERNS AND LIPID BILAYERS FOR DNA MOLECULE ORGANIZATION AND USES THEREOF” (published 2011).

The subject of one data set is EcoRI E111Q E111Q. As to conditions: CITED F17; cited from earlier work.
The test system of the next data set is EcoRI. As to conditions: CITED F17; cited from earlier work.
For data set [1], the system named is RNA polymerase holoenzyme (Escherichia coli). The following applies: CITED; cited from earlier work.
The target of the next data set is LacI (UniProt P03023). As to conditions: CITED F24; cited from earlier work.
A further data set has as its target Mlh1-Pms1 (Saccharomyces cerevisiae, UniProt P38920;P14242 P38920:1-769,P14242:1-873). The data set can be described thus: EMSA; 25 mM Hepes pH 7.6, 50 mM NaCl, RT; QD/antibody labelling did not disrupt binding. The following applies: tags: FLAG inserted after T448 or Y499 of Mlh1 and/or HA after D565 of Pms1, anti-tag quantum dots; chain copies: heterodimer (stated); label: 5'-32P. (In general: Mobility shift assays separate free from complexed probe on a gel.)

LacI, sequence (P03023 whole entry): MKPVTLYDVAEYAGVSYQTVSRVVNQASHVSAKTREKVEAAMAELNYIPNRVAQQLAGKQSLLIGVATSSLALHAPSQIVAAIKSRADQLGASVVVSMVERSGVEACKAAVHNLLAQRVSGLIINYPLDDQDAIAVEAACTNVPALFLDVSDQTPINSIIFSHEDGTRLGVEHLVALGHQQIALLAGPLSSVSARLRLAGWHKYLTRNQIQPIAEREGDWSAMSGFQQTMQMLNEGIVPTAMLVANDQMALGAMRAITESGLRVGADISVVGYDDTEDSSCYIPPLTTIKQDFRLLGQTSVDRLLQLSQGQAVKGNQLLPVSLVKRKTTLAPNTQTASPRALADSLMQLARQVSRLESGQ
Mlh1-Pms1, sequence (P38920 whole entry, chain 1 of 2): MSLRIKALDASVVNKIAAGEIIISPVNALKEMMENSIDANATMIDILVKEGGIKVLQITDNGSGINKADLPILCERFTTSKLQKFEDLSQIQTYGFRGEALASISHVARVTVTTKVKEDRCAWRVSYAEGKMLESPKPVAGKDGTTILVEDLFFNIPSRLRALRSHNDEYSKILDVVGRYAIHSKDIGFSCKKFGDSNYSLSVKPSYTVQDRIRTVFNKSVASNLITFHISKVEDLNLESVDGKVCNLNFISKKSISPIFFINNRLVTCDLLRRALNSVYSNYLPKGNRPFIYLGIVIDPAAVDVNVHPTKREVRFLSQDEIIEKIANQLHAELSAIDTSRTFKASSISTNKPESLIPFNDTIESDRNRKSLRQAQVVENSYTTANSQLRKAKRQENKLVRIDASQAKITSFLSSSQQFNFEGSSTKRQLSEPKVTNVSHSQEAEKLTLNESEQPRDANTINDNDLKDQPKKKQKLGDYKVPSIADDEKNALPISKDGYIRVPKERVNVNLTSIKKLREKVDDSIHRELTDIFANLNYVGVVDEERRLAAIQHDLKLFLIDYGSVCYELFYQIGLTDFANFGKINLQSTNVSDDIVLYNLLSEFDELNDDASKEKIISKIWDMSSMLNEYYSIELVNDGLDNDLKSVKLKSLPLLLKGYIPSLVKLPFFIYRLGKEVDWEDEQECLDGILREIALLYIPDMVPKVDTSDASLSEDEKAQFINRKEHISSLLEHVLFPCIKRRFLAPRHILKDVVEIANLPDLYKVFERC
Mlh1-Pms1, sequence (P14242 whole entry, chain 2 of 2): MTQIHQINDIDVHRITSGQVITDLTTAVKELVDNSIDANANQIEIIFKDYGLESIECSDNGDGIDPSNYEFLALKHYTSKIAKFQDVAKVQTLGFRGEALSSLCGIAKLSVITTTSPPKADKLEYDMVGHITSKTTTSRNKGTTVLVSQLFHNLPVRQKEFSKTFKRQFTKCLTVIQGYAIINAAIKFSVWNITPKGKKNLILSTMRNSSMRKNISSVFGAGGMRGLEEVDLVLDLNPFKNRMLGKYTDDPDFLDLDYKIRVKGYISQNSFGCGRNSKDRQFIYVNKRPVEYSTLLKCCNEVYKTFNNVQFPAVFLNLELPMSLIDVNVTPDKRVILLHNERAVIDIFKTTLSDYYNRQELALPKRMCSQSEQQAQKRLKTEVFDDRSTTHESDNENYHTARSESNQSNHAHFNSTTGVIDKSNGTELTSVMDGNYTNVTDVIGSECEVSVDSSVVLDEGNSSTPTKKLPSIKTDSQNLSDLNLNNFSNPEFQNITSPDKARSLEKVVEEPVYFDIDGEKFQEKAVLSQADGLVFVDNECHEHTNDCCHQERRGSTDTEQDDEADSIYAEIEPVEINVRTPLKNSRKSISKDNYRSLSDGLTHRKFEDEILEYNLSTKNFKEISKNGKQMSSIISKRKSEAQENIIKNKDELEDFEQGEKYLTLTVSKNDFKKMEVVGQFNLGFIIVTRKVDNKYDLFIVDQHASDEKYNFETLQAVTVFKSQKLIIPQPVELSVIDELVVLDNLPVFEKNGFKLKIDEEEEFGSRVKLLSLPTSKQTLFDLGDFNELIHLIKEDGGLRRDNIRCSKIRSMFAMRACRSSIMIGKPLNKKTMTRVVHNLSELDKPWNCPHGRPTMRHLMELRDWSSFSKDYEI
Procedure for Mlh1-Pms1: Ensemble characterization of Mlh-Pms1 DNA-binding activity. […] Samples were loaded on 4% (w/v) non-denaturing polyacrylamide gels containing 0.5×TBE and electrophoresed at 130 V for 1 hour at RT. Gels were dried on 3mM Whatman paper and visualized by Phosphorlmaging. Analysis was done using ImageJ.

As usually defined, the Kd is the free concentration of one partner at which half of the binding sites on the other are occupied at equilibrium, for simple one-to-one binding. In the case of EcoRI cognate site DNA, the Kd was 0.0025 pM in the data set with EcoRI E111Q E111Q and 6.7 pM with EcoRI.
On to lambda PL promoter, for which the Kd in data set [1] is 100 pM.
In the case of lambda PR promoter, in data set [1], the Kd is 10 pM.
Take nonspecific DNA: the dissociation constant (Kd) with EcoRI E111Q E111Q was 4.8 pM; in the data set with LacI it was greater than 1000 pM.

B1: 40 bp S1/S2 duplex (dsDNA)
DNA 1: ACCGAATTCTGACTTGCTAGGACATCTTTGCCCACGTTGA
DNA 2: TCAACGTGGGCAAAGATGTCCTAGCAAGTCAGAATTCGGT
Consider B1, for which, in the data set with Mlh1-Pms1, the binding result is given as “binds”.
